{"source": "patent US20170267762A1", "about": "(APOLLOMICS, published 2017)", "binders": {"B1": {"name": "chimeric 13F1-hIgG4 (antibody, V domains shown)", "VH": "DVQLQESGPGLVKPSQSLSLTCTVTGYSITSDYAWNWIRQFPGNQLEWMAYISYSGYTSYNPSLKSRISITRDTSKNQFFLQLNSVTTEDTATYYCARSLDYDYGTMDYWGQGTSVTVSS", "VL": "QIVLSQSPAILSASPGEKVTMTCRANSSVSSMHWYQQKPGSSPEPWIYAISNLAFGVPTRFSGSGSGTSYSLTISRVEAEDAATYFCQQWSSRPPTFGGGTKLEIKR", "notes": "Full chimeric chains; also called 13F1-chimeric"}, "B2": {"name": "chimeric 7A4-hIgG4 (antibody)", "heavy": "not shown", "light": "DIVLTQSPASLAVSLGQRATISCRASESVDNYGYSFMNWFQQKPGQPPKLLIYRASNLESGIPARFSGSGSRTNFTLTINPVEADDVATYFCQQSNADPTFGGGTNLEIKRTVAAPSVFIFPPSDEQLKSGTASVVCLLNNFYPREAKVQWKVDNALQSGNSQESVTEQDSKDSTYSLSSTLTLSKADYEKHKVYACEVTHQGLSSPVTKSFNRGEC", "notes": "Full chimeric chains"}, "B3": {"name": "chimeric 7A4-hIgG1 (antibody)", "heavy": "not shown", "light": "B2 light", "notes": "Full chimeric chains; also called 7A4-chimeric-IgG1"}, "B4": {"name": "chimeric 10D1-hIgG4 (antibody, V domains shown)", "VH": "EVKLVESGGGLVKPGGSLKLSCAASGFTFSSYGMSWLRQTPEKRLEWVATMSGGGRDIYYPDSMKGRFTISRDNAKNNLYLQMSSLRSEDTALYYCARQYYDDWFAYWGQGTLVTVSA", "VL": "DIVLTQTPATLSVTPGDSVSLSCRASQSISNNLHWYQQKSHESPRLLIKYASQSISGIPSRFSGSGSGTDFTLNINSVETEDFGMYFCQQSNSWPLTFGAGTKLELKR", "notes": "Mouse variable regions with human IgG4 constant region"}, "B5": {"name": "chimeric 4C10-hIgG4 (antibody, V domains shown)", "VH": "QVQLKQSGPGLVQPSQNLSVTCTVSGFSLTTYGVHWVRQSPGKGLEWLGVIWSGGSTDYNAAFISRLTISKDNARSQVFFKMNSLQVNDTAMYYCAREKSVYGNYVGAMDYWGQGTSVTVSS", "VL": "SIVMTQTPKFLLVSAGDRVTITCKASQSVSDDVAWYQQKPGQSPKLLIYYAFNRYTGVPDRFTGSGYGTDFTFTISTVQSEDLAVYFCQQDYRSPWTFGGGTKLEIKR", "notes": "as for B4"}, "B6": {"name": "chimeric 14A6-hIgG4 (antibody, V domains shown)", "VH": "B1 VH with K76R", "VL": "B1 VL with T59A, S91N", "notes": "as for B4"}, "B7": {"name": "chimeric 22A5-hIgG4 (antibody, V domains shown)", "VH": "EVKLVESGGGLVKPGGSLKLSCSASGFSFSYYDMSWVRQTPEKGLEWVATISGGGRNTYFIDSVKGRFTISRDNVKNNLYLLMSSLRSEDTALYYCASPYEGAVDFWGQGTSVTVSS", "VL": "DIVMTQSHKVMSTSVGDRVSITCKASQDVDNAVAWYQQNPGQSPKLLIKWASTRHHGVPDRFTGSGSGTDFTLTISTVQSEDLADFFCQQYSTFPYTFGGGTKLEIKR", "notes": "as for B4"}}, "note": "Residue numbers refer to the chain shown, from its start.", "data": [{"biological_target": "T1, human PD-1 on cells (293T cells transfected with human PD-1) (human, UniProt Q15116 25-288)", "T1 construct": "whole, on cells; Also used as the target for the functional rows, where PD-1 stands on human T cells", "T1 sequence (Q15116 25-288)": "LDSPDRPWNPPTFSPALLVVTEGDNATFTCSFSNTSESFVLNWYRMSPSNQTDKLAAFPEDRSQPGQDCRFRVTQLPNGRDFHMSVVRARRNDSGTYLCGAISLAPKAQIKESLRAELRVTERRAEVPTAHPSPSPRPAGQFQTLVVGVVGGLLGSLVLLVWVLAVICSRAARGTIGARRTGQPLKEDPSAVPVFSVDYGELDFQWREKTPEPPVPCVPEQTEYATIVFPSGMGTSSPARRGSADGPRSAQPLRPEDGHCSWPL", "test": "FACS binding to 293T cells expressing human PD-1, MFI", "protocol": "(§1) The cells were incubated with the indicated antibody (20 ug/ml with the dilution of ⅕) at 4° C. for 1 h. Cells were washed three times with FACS buffer. A secondary antibody (PE Goat anti-mouse: 1:200; PE mouse anti-human: 1:10) was added to the cells at 100 ul/well, and incubated at 4° C. for 40min. Cells were washed three times with FACS buffer and analyzed by FACS Array.", "units": {"EC50": "µg/mL"}, "values": [{"binder": "B1", "EC50": 0.0815}, {"binder": "B2", "EC50": 0.137}, {"binder": "B3", "EC50": 0.0337}]}, {"biological_target": "T2, human PD-1 extracellular domain fused with human Fc tag (hPD-1-hFc) (human)", "T2 construct": "also called human PD-1-hFc", "T2 sequence (chain, as listed by the source limits assumed)": "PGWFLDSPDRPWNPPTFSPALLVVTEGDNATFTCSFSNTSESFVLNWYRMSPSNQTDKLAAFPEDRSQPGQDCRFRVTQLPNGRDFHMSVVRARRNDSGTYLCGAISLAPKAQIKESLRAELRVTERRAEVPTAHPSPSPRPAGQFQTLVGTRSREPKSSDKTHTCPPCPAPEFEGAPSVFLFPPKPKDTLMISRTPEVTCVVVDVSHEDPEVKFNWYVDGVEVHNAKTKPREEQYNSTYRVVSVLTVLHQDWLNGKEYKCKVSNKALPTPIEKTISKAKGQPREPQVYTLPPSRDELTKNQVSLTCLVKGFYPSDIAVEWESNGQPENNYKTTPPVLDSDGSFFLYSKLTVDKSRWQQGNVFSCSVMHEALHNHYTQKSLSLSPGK", "test": "ELISA binding to plate-bound PD-1, OD450 (methods similar to Example 2: plate coated with PD1-hFc)", "protocol": "(§2) ELISA binding analysis was conducted based on human PD-1-hFc Protein. 96-well plates (Costar, Cat No:9018) were coated with 100 μL of 2 μg/ml PD1-hFc (CrownBio) in coating buffer (PBS, Hyclone, Cat No:SH30256.01B) overnight at 4° C. The wells were aspirated and non-specific binding sites were blocked by adding 200 μL of blocking buffer with 1% (w/v) of bovine serum albumin (BSA, Roche, Cat No: 738328) and incubating for 1 hour at 37° C. After the plates are washed three times with wash buffer (PBS with 0.05%(v/v) Tween20 (Sigma, Cat No:P1379), 100 μL/well of a suitable dilutions of hybridoma supernatant in blocking buffer were added and incubated at room temperature for 1 hour. The plates were washed and incubated with 100 μL/well of Goat anti-Mouse IgG (H+L) (Thermo, Cat No: 31432) in blocking buffer for 60 min. After the plates were washed, 100 μL/well of substrate solution (TMB(eBioscience, Cat No:00-4201-56) was added and the plates were incubated for 2min at room temperature. 100 μL/well of stop solution (2N H2SO4) was added to stop the reaction. The colorimetric signals were developed and read at 450 nm using a Auto Plate SpectraMax Plus (Supplier: Molecular Devices; Model: MNR0643; Software: SoftMax Pro v5.4).", "units": {"EC50": "µg/mL"}, "values": [{"binder": "B1", "EC50": 0.0456}, {"binder": "B2", "EC50": 0.0474}, {"binder": "B3", "EC50": 0.0128}]}, {"biological_target": "T3, human PD-1 extracellular domain fused with mouse Fc (PD-1-mFc) (human, UniProt Q15116 25-170)", "T3 construct": "extracellular domain; not used because of the label; also called hPD-1-mFc; human PD-1-mouse Fc fusion protein", "T3 sequence (Q15116 25-170)": "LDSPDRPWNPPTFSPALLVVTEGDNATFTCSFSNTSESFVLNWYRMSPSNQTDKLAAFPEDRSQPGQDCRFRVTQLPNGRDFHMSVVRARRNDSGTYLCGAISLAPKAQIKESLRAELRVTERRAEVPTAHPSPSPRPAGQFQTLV", "test": "blockage ELISA, coated PD-1-mFc, competitor PDL-1-mFc-biotin", "protocol": "(§3) PD-1-mFc antigen (CrownBio) was suspended in PBS (Hyclone,Cat No:SH30256.01B) buffer (2 ug/ml, 100 ul/ well) and coated on the 96 well plate (costar, Cat No.:9018) 4° C. overnight. Plates were washed 3 times using washing buffer: PBS+0.05% Tween 20(Sigma, Cat No.:P1379). 200 ul of blocking buffer (PBS+1%BSA(Roche, Cat No.:738328)), was added to each well, incubated at 37° C. for 1 hour, and washed 3 times. Various concentrations (suitable dilutions of hybridoma supernatant in PBS) of the anti-PD-1 Abs were added to the wells (100 μl/well) and incubated at 37° C. for 1 hour. […] Secondary antibody (Avidin HRP eBioscience cat No.:E07418-1632, 1:500, 100 ul/well) was added, incubated at 37 ° C. for 0.5 hour, and washed 3 times. TMB (Sigma, Cat No.: T0440, 100 ul/well) was added, and incubated for 3 min at RT. To stop the reaction, 2N H2SO4 (100 ul/well), was added. The colorimetric signals were developed and read at 450 nm using a Auto Plate SpectraMax Plus (Supplier: Molecular Devices; Model: MNR0643; Software: SoftMax Pro v5.4).\n(§4) Freestyle 293 cells (200 mL at 10⁶/mL) were transfected with 100 μg of each of the chimeric heavy and light chain expression plasmids and cultured for 6 days. The chimeric antibody in the supernatant was then purified with Protein-G column (GE healthcare).", "units": {"IC50": "µg/mL"}, "values": [{"binder": "B4", "IC50": 1.03}, {"binder": "B5", "IC50": 0.978}, {"binder": "B1", "IC50": 0.856}, {"binder": "B6", "IC50": 0.823}, {"binder": "B7", "IC50": 1.01}, {"binder": "B2", "IC50": 0.871}]}, {"biological_target": "T1, human PD-1 on cells (293T cells …)", "test": "FACS on hPD-1-293T cells", "protocol": "as §1, §4", "units": {"EC50": "µg/mL"}, "values": [{"binder": "B4", "EC50": 0.219}, {"binder": "B5", "EC50": 0.221}, {"binder": "B1", "EC50": 0.113}, {"binder": "B6", "EC50": 0.103}, {"binder": "B7", "EC50": 0.145}, {"binder": "B2", "EC50": 0.0916}]}, {"biological_target": "T2, human PD-1 extracellular domain fused …", "test": "ELISA on coated PD1-hFc", "protocol": "as §2, §4", "units": {"EC50": "µg/mL"}, "values": [{"binder": "B4", "EC50": 0.0588}, {"binder": "B5", "EC50": 0.0946}, {"binder": "B1", "EC50": 0.0587}, {"binder": "B6", "EC50": 0.0646}, {"binder": "B7", "EC50": 0.0413}, {"binder": "B2", "EC50": 0.062}]}, {"biological_target": "T3, human PD-1 extracellular domain fused …", "test": "ELISA ligand blockage: biotinylated PD-L1-mFc binding to plate-bound PD-1, OD450 (methods similar to Example 2: PD-1-mFc coated)", "protocol": "as §3", "units": {"IC50": "µg/mL"}, "values": [{"binder": "B1", "IC50": 0.878}, {"binder": "B2", "IC50": 0.845}, {"binder": "B3", "IC50": 0.356}]}, {"biological_target": "T1, human PD-1 on cells (293T cells …)", "test": "FACS blockage on hPD-1-293T cells, competitor biotin PD-L1", "protocol": "Various concentrations of the testing hybridoma antibodies were added to the cell suspension and incubated at 4° C. for 60 minutes in 96 well plates. […] Plates were washed 3 times, and mouse anti-biotin PE antibody (Biolgend, cat# 409004) was added. Flow cytometric analyses were performed using a FACS Array.\nas §4", "units": {"IC50": "µg/mL"}, "values": [{"binder": "B4", "IC50": 0.0403}, {"binder": "B5", "IC50": 0.129}, {"binder": "B1", "IC50": 0.0521}, {"binder": "B6", "IC50": 0.0614}, {"binder": "B7", "IC50": 0.0843}, {"binder": "B2", "IC50": 0.0706}]}]}
